Results from US20260226154A1 (CEPHALON, published 2026).

Tests used:
PACAP38 [1] = target: T1, PACAP38 (human, not fully specified); assay: cell-based or functional assay
T1 peptide: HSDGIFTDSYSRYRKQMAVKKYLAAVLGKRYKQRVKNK

PACAP38 [2] = target: T1, PACAP38; assay: cell-based or functional assay
PACAP38 [3] = target: T1, PACAP38; assay: cell-based or functional assay
PACAP38 [4] = target: T1, PACAP38; assay: cell-based or functional assay
VIP [5] = target: T2, VIP (human); assay: cell-based or functional assay
T2 peptide: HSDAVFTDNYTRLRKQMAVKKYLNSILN

VIP [6] = target: T2, VIP; assay: SPR (Biacore), 37 C, captured antibody; target VIP
Experimental: (§1) In brief, antibody and peptide interaction was determined on a Biacore S200 (GE Healthcare) by method previously described (Andreu and Gomes 2002). An anti-Human IgG Fc capture antibody was immobilized on a CM5 biosensor chip via standard amine coupling. Anti-PACAP antibodies were injected and captured to 200 to 400 response units (RU),). PACAP38, PACAP27 and VIP were diluted in HBS-EP+ buffer containing 0.1% w/v BSA (Bovostar, catalog number BSAS1.0) and 0.15 M NaCl (Sigma-Aldrich catalog number S7653), pH 7.4. Binding kinetics of antibodies were determined by injection of two-fold serial dilutions of PACAPs (12 nm to 0 nM) and VIP (1200 nM to 0 nM) in running buffer at 37° C. with a flow rate of 40 μL/min for 2 min followed by a dissociation for 10 minutes. For subsequent cycles, the chip was regenerated using 0.85% phosphoric acid. Data was analysed with the Biacore S200 Evaluation Software (ver 1.0). Association rate (kₐ) and dissociation rate (kd) constants were determined using a simple one-to-one Langmuir binding model and used to calculate the equilibrium dissociation constant (KD).
(§2) The selectivity of antibody 890C was assessed by comparing the inhibition of PACAP38-signalling to inhibition of VIP-signalling in a cyclic AMP (cAMP) measuring cell-based functional assay.

PACAP27 = target: T3, PACAP27 (human, not fully specified); assay: SPR (Biacore), 37 C, captured antibody; target PACAP27
T3 peptide: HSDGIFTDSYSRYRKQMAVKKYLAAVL
Experimental: as §1, §2

PACAP38 [7] = target: T1, PACAP38; assay: SPR (Biacore), 37 C, captured antibody; target PACAP38
Experimental: as §1, §2

PACAP38 [8] = target: T1, PACAP38; assay: SPR (Biacore), 37 C, antibody captured via anti-human Fc, peptide analyte
Experimental: as §1

PACAP38 [9] = target: T1, PACAP38; assay: SPR (Biacore S200) off-rate ranking, antibody captured from supernatant, single injection of 33.3 nM PACAP38
Experimental: as §1, with “Binding kinetics of antibodies were determined by injection of two-fold serial dilutions of PACAPs (12 nm to 0 nM) and VIP (1200 nM to 0 nM) in running buffer at 37° C. with a flow rate of 40 μL/min for 2 min followed by a dissociation for 10 minutes.” left out

GRF = target: T4, GRF; assay: SPR (Biacore) at 37 C, captured antibody, 37.5 nM peptide, relative response after 15 sec dissociation
T4 construct: also called GHRF; Growth Hormone Releasing Factor
T4 peptide: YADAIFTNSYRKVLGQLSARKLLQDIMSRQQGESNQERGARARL
Experimental: (§3) The anti-PACAP antibodies, e.g., 890C, were tested against related peptides in the Secretin Glucagon family (Table 19) to determine the presence and extent of any off-target binding. Nine bioactive peptides in the glucagon superfamily are: PACAP, VIP, glucagon, Glucagon-Like Peptides (GLP-1, GLP-2), Growth Hormone Releasing Factor (GRF or GHRF), Peptide Histidine Methionine (PHM), secretin, and Gastric inhibitory polypeptide (GIP). Following capture of antibodies as described in example 4, the antibody and the peptide interaction was measured by injection of 37.5 nM of each peptide diluted in buffer at 37° C. with a flow rate of […] for 2 min followed by a dissociation phase of 4-5 min. Samples were injected in a multi-cycle manner over freshly captured anti-PACAP antibody, by regenerating the capture surfaces with two injections of 0.85% phosphoric acid at a flow rate of 30 μL/min.
as §2

PHM = target: T5, PHM; assay: as above
T5 construct: also called Peptide Histidine Methionine
T5 peptide: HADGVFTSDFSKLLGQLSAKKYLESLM
Experimental: as §3, §2

Secretin = target: T6, Secretin; assay: as above
T6 peptide: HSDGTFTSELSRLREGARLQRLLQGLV
Experimental: as §3, §2

Glucagon = assay: as above
Experimental: as §3, §2

GIP = target: T7, GIP; assay: as above
T7 peptide: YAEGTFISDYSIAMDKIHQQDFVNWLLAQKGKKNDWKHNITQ
Experimental: as §3, §2

GLP-1 = target: T8, GLP-1; assay: as above
T8 construct: also called Glucagon-Like Peptide 1
T8 peptide: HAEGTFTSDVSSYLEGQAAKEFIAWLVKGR
Experimental: as §3, §2

GLP-2 = target: T9, GLP-2; assay: as above
T9 construct: also called Glucagon-Like Peptide 2
T9 peptide: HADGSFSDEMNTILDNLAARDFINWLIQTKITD
Experimental: as §3, §2

Sequence of Glucagon (peptide, as listed by the source): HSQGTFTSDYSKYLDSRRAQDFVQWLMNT

- selectivity, inhibition of PACAP38-induced cAMP production (CHO-K1, PAC1 receptor) versus VIP-induced cAMP production (CHO-K1, VPAC1 receptor) (PACAP38 [1]): > 1000 fold
- PACAP-38 IC50 (PACAP38 [2]): 320 pM
- IC50 (nM), PACAP-induced cAMP accumulation, CHO-K1 cells, cAMP-Glo (PACAP38 [3]): 0.32 nM
- IC50 (read off the curve), PACAP-induced cAMP production, CHO-K1 cells expressing PAC1 (PACAP38 [4]): ~400 pM
- fold shift between the PACAP/PAC1 and the VIP/VPAC1 inhibition curves (selectivity for PACAP over VIP) (PACAP38 [4]): 1400 fold
- IC50 (read off the curve), VIP-induced cAMP production, CHO-K1 cells expressing VPAC1 (VIP [5]): ~600000 pM
- Kd (VIP [6]): 390000 pM
- Kd (PACAP27): 218 pM
- Kd (PACAP38 [7]): 54 pM
- Kd (PACAP38 [8]): 28.4 pM
- koff (PACAP38 [8]): 0.000671 s⁻¹
- kon (PACAP38 [8]): 2.36e+07 M⁻¹ s⁻¹
- Kd (PACAP38 [9]): 28.4 pM
- koff (PACAP38 [9]): 0.000671 s⁻¹
- kon (PACAP38 [9]): 2.36e+07 M⁻¹ s⁻¹
- binding result (GRF): no binding (tested: 37.5 nM)
- binding result (PHM): no binding (tested: 37.5 nM)
- binding result (Secretin): no binding (tested: 37.5 nM)
- binding result (Glucagon): no binding (tested: 37.5 nM)
- binding result (GIP): no binding (tested: 37.5 nM)
- binding result (GLP-1): no binding (tested: 37.5 nM)
- binding result (GLP-2): no binding (tested: 37.5 nM)
B1: 890C (antibody, human IgG2, kappa, V domains shown)
VH: EVQLVQSGAEVKKPGSSVKVSCKASGGTFSDVYMHWVRQAPGQGLEWMGLIYPIFADTRYAQKFQGRVTITADESTSTAYMELSSLRSEDTAVYYCAIDQDGSFAYWGQGTLVTVSS
VL: DIVMTQSPDSLAVSLGERATINCKSSQSLLDADGKTYLNWLQQKPGQPPKRLIYWASTRESGVPDRFSGSGSGTDFTLTISSLQAEDVAVYYCWQGTWFDLTFGGGTKVEIKR
notes: Full chains as named '890C heavy chain' / '890C light chain' (IgG2DASS, kappa); also called anti-PACAP antibody 890C
